The values below come from doi:10.1101/2025.11.18.689095 (bioRxiv, 2025).

B1: human Tom70 (residues 108–608) (domain or fragment)
chain: MNSLDRAQAAKNKGNKYFKAGKYEQAIQCYTEAISLCPTEKNVDLSTFYQNRAAAFEQLQKWKEVAQDCTKAVELNPKYVKALFRRAKAHEKLDNKKECLEDVTAVCILEGFQNQQSMLLADKVLKLLGKEKAKEKYKNREPLMPSPQFIKSYFSSFTDDIISQPMLKGEKSDEDKDKEGEALEVKENSGYLKAKQYMEEENYDKIISECSKEIDAEGKYMAEALLLRATFYLLIGNANAAKPDLDKVISLKEANVKLRANALIKRGSMYMQQQQPLLSTQDFNMAADIDPQNADVYHHRGQLKILLDQVEEAVADFDECIRLRPESALAQAQKCFALYRQAYTGNNSSQIQAAMKGFEEVIKKFPRCAEGYALYAQALTDQQQFGKADEMYDKCIDLEPDNATTYVHKGLLQLQWKQDLDRGLELISKAIEIDNKCDFAYETMGTIEVQRGNMEKAIDMFNKAINLAKSEMEMAHLYSLCDAAHAQTEVAKKYGLKPPTL
notes: human Tom70 (translocase of outer mitochondria membrane 70), residues 108-608; N-terminal Avi tag, His6 tag, (GGS)5 linker and TEV site removed by TEV protease; also called hTom70; free Tom70; source: E. coli BL21 (DE3), purified (Ni-NTA, TEV cleavage, second Ni column, SEC); not shown: Avi, N-terminal, cleaved; His6, N-terminal, cleaved
B2: ^19F-labeled Tom70 (5-fluoro-tryptophan, residues 108–608) (domain or fragment)
chain: B1 chain
modifications: 5-fluoro-tryptophan at W169 and W523
notes: human Tom70, residues 108-608; also called ^19F Tom70; 5F-Trp Tom70; source: E. coli BL21(DE3) in M9 media supplemented with 5-fluoro-tryptophan, purified as unlabeled Tom70; not shown: Avi, N-terminal, cleaved; His6, N-terminal, cleaved
B3: Hsp90_(EEVD) peptide (peptide)
peptide: YDTSRMEEVD-OH
notes: tyrosine added to aid with quantification; C-terminal residues 724-732 of human Hsp90α; 10 residues: an added N-terminal Tyr and nine Hsp90 residues; source: synthetic peptide (LifeTein)

Where no end group is shown, it is not given here.

Common to all, as to conditions: both partners purified
Experiment [1] concerns the target T1, biotinylated human Hsp90α (residues 1–732), tags not cleaved (human, UniProt P07900 1-732, biotin (enzymatic protein biotinylation kit)).
T1 construct: human Hsp90α, residues 1-732; N-terminal Avi tag, His6 tag, (GGS)5 linker and TEV site remain on the chain; held on streptavidin probes; also called biotinylated Hsp90; surface-immobilized Hsp90; source: E. coli BL21 Star (DE3) pLysS, purified (Ni-INDIGO, HiPrep Q; no TEV cleavage), enzymatically biotinylated; not shown: Avi, N-terminal, kept; His6, N-terminal, kept
Kind of experiment: BLI + ITC; kon estimated indirectly as koff from BLI (immobilised biotinylated Hsp90) divided by KD from ITC (untagged Hsp90).

Experiment [2] deals with T2, human Hsp90α (residues 1–732), full-length (human, UniProt P07900 1-732).
T2 construct: human Hsp90α, residues 1-732; also called full-length Hsp90; heat shock protein 90; source: E. coli BL21 Star (DE3) pLysS, purified (Ni-INDIGO, TEV cleavage, second Ni-INDIGO, HiPrep Q); not shown: Avi, N-terminal, cleaved; His6, N-terminal, cleaved
The experiment is described as follows: ITC; Tom70 (400 μM), Tom70:Orf9b_(Helix) complex (400 μM), Tom70:Orf9b complex (500 μM) or truncation mutant complexes titrated into Hsp90 (20 μM); 20°C; 20 mM sodium phosphate pH 8, 150 mM NaCl, 2 mM TCEP, 10% glycerol; 1:1 binding model.

The target in experiment [3] is T2, human Hsp90α (residues 1–732), …. Kind of experiment: NMR titration.
Experiment [4] addresses B1. The experiment is described as follows: ITC; Hsp90_(EEVD) (400–500 μM) titrated into Tom70 or its complexes (30 μM) in the cell; 20°C; 20 mM sodium phosphate pH 8, 150 mM NaCl, 2 mM TCEP, 10% glycerol; 1:1 binding model.

Turning to B1, the kon in experiment [1] is 500000 M⁻¹ s⁻¹. This molecule also showed a Kd in experiment [2] of 3000 nM. As to B2, the binding result in experiment [3] is “binds”. In the case of B3, the “fold lower affinity than full-length Hsp90 for free Tom70” value in experiment [4] worked out at 4 fold.

A word on the kon: it is the second-order rate constant of association. A word on the Kd: it is the concentration at which binding is half-saturated.
